Among the data in article PMC9230529 are Kd values, retold here.

This assay addresses CD16a ectodomain (Human CD16a, amino acids Met1-Gln208, C-terminal His-tag) (human). As to the kind of experiment: BLI. Background: Biolayer interferometry detects binding as a change in optical thickness at a sensor tip.

The Kd is the concentration at which binding is half-saturated. The substance “SARS-CoV-2 ORF8 (aa16-121), His Tag (from UniProt P0DTC8 16-121) (natural protein)” showed a Kd of 38.9 nM.
